Assay results reported in patent US20250243261A1.

Target: SARS-CoV-2 BQ.1.1 Spike RBD (SARS-CoV-2 BQ.1.1 variant)
Test: BLI, IgG

Sequence of LY-1404 WT IgG (antibody) (VH): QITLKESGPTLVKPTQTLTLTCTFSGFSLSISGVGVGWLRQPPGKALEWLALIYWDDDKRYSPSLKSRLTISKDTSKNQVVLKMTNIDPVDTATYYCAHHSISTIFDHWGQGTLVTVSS
Sequence of LY-1404 WT IgG (antibody) (VL): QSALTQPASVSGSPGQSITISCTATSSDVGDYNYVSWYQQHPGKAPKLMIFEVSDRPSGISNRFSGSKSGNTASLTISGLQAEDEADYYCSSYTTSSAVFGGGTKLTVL

LY-1404 WT IgG (antibody) showed a Kd of 1.7 µM.
